For one series, the target named is T1, Arabidopsis UGPase1 (Arabidopsis thaliana, UniProt Q9M9P3).
T1 construct: gene UGP2; recombinant, expressed in E. coli, purified to homogeneity as earlier reported
Description: Pi release from PPi, phosphomolybdate colorimetry. In kind it is biochemical. Conditions: forward reaction; 5 mM MgCl2; pH 7.5; room temperature; estimate, clouding at and above 3 mM.

The next series addresses T2, barley UGPase (Hordeum vulgare, UniProt Q43772).
T2 construct: recombinant, expressed in E. coli, purified to homogeneity as earlier reported
The series is described as follows: Pi release from PPi, phosphomolybdate colorimetry. The format is biochemical. The settings on record: forward reaction, 5 mM MgCl2, pH 7.5, room temperature.

The target of another series is T3, Arabidopsis UGPase2 (Arabidopsis thaliana, UniProt P57751).
T3 construct: gene UGP1; recombinant, expressed in E. coli, purified to homogeneity as earlier reported
T3 sequence (P57751 2-470): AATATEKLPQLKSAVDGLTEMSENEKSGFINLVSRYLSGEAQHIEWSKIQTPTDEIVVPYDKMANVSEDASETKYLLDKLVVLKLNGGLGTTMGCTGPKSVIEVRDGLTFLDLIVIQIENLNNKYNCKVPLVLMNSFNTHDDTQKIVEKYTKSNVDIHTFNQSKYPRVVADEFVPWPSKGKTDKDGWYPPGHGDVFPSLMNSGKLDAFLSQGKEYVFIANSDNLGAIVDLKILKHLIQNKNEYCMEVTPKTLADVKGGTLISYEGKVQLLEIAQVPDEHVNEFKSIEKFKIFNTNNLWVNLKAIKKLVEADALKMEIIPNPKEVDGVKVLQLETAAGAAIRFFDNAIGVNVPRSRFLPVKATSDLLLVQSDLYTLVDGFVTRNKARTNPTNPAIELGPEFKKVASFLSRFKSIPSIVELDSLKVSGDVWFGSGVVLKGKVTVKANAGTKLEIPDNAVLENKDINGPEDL
Description: Pi release from PPi, phosphomolybdate colorimetry. The format is biochemical. Conditions: 1 mM Glc-1-P; 1 mM UTP; 5 mM MgCl2; pH 7.5; room temperature.

Series [1] concerns O=P(O)(O)O[C@H]1O[C@H](CO)[C@@H](O)[C@H](O)[C@H]1O. The series is described as follows: Pi release from PPi, phosphomolybdate colorimetry. The format is biochemical, Arabidopsis thaliana. The settings on record: forward reaction, co-substrate UTP, 5 mM MgCl2, pH 7.5, room temperature.
Series [2] deals with O=c1ccn([C@@H]2O[C@H](COP(=O)(O)OP(=O)(O)OP(=O)(O)O)[C@@H](O)[C@H]2O)c(=O)[nH]1. Description: Pi release from PPi, phosphomolybdate colorimetry. In kind it is biochemical, Arabidopsis thaliana. The settings on record: forward reaction, co-substrate GalNAc-1-P, 5 mM MgCl2, pH 7.5, room temperature.
Series [3] concerns CC(=O)N[C@H]1[C@@H](OP(=O)(O)O)O[C@H](CO)[C@H](O)[C@@H]1O. The series is described as follows: Pi release from PPi, phosphomolybdate colorimetry. The format is biochemical, Arabidopsis thaliana. Conditions: forward reaction, co-substrate UTP, 5 mM MgCl2, pH 7.5, room temperature.
The next series has as its system O=P(O)(O)OP(=O)(O)O. The series is described as follows: purified protein. In kind it is biochemical, Arabidopsis thaliana. Conditions: reverse reaction, co-substrate UDP-Glc, 5 mM MgCl2, pH 7.5.
Series [4] relates to O=c1ccn([C@@H]2O[C@H](CO[P@@](=O)(O)O[P@@](=O)(O)O[C@H]3O[C@H](CO)[C@@H](O)[C@H](O)[C@H]3O)[C@@H](O)[C@H]2O)c(=O)[nH]1. The series is described as follows: purified protein. In kind it is biochemical, Arabidopsis thaliana. Conditions: reverse reaction, co-substrate PPi, 5 mM MgCl2, pH 7.5.
The subject of series [5] is C[C@H]1O[C@H](OP(=O)(O)O)[C@H](O)[C@@H](O)[C@H]1O. The series is described as follows: Pi release from PPi, phosphomolybdate colorimetry. The settings on record: forward reaction, co-substrate UTP, 5 mM MgCl2, pH 7.5, room temperature. In kind it is biochemical, Arabidopsis thaliana.
In series [6] the test system is O=C(O)[C@H]1O[C@H](OP(=O)(O)O)[C@H](O)[C@@H](O)[C@H]1O. The series is described as follows: Pi release from PPi, phosphomolybdate colorimetry. The format is biochemical, Arabidopsis thaliana. Conditions: forward reaction, co-substrate UTP, 5 mM MgCl2, pH 7.5, room temperature.
For series [7], the system named is O=P(O)(O)O[C@H]1O[C@H](CO)[C@@H](O)[C@H](O)[C@H]1O. Description: Pi release from PPi, phosphomolybdate colorimetry. The format is biochemical, Hordeum vulgare. The settings on record: forward reaction, co-substrate UTP, 5 mM MgCl2, pH 7.5, room temperature.

T2 sequence (Q43772 whole entry): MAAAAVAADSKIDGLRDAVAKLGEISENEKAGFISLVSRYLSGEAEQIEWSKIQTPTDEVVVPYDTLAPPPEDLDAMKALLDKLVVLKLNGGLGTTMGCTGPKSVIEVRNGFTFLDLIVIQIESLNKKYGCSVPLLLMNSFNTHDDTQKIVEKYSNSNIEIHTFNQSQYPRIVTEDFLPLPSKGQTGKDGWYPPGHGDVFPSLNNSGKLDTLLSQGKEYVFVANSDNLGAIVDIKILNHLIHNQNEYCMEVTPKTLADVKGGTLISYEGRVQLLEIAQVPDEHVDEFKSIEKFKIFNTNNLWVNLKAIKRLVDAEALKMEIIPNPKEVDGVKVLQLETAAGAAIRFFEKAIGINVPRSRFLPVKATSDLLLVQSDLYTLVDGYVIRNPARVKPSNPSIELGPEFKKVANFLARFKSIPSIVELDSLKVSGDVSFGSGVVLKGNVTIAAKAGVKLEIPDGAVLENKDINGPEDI
T1 sequence (Q9M9P3 2-469): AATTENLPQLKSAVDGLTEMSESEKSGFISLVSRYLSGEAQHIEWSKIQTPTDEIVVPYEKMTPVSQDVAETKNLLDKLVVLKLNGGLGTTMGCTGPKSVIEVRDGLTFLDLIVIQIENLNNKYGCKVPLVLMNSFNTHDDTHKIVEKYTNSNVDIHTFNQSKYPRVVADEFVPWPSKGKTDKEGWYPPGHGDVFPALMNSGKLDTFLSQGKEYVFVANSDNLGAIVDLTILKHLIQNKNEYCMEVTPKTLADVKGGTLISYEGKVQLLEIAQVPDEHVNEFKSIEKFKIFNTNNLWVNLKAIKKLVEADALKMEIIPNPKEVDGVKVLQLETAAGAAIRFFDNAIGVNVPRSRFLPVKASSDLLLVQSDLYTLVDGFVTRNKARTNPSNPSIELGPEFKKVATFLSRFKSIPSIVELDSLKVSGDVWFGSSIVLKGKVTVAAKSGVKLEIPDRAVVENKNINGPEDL

`O=P(O)(O)OCC1(O)O[C@H](CO)[C@@H](O)[C@@H]1O` (some centres unmarked) [Fru-1-P]: the Km (commonly the substrate concentration at which the rate is half of its maximum) is above 10 mM at Arabidopsis UGPase1; above 10 mM at barley UGPase (estimate, clouding at and above 3 mM).

With `O=P(O)(O)O[C@]1(CO)O[C@H](CO)[C@@H](O)[C@@H]1O` [Fru-2-P], on barley UGPase, the Km was above 10 mM.

Regarding `O=P(O)(O)O[C@H]1O[C@H](CO)[C@H](O)[C@H](O)[C@H]1O` [Gal-1-P], at barley UGPase (estimate from near-linear rate up to 10 mM), the Km is above 10 mM. In the case of `O=P(O)(O)O[C@H]1O[C@H](CO)[C@@H](O)[C@H](O)[C@H]1O` [Glc-1-P], the “Pi release from PPi, phosphomolybdate colorimetry” value at Arabidopsis UGPase2 is “plant UGPases are highly specific for Glc-1-P and UTP as substrates”. As for `O=c1ccn([C@@H]2O[C@H](COP(=O)(O)OP(=O)(O)OP(=O)(O)O)[C@@H](O)[C@H]2O)c(=O)[nH]1` [UTP], the “Pi release from PPi, phosphomolybdate colorimetry” value at Arabidopsis UGPase2 was “plant UGPases are highly specific for Glc-1-P and UTP as substrates”. On to “Arabidopsis UAGPase2 (Arabidopsis thaliana)”, for which the Km in [1] came out at 3.2 mM; in [2], 3 mM; in [3] it was 1.0 mM; with O=P(O)(O)OP(=O)(O)O, 0.32 mM; in [4], 0.21 mM. For the compound “Arabidopsis USPase (Arabidopsis thaliana)”, the Km in [5] was 3.4 mM; in series [6], 1.3 mM. barley UGPase (Hordeum vulgare): the Km in series [7] came out at 0.45 mM.

(Values after article PMC5609113, “Substrate Specificity and Inhibitor Sensitivity of Plant UDP-Sugar Producing Pyrophosphorylases” (Frontiers in Plant Science, 2017).)
